Source: patent publication US20250043302A1, “MUTATED HYDROXYPHENYLPYRUVATE DIOXYGENASE POLYPEPTIDE, AND CODING GENE AND USE THEREOF” (BEIJING DABEINONG BIOTECHNOLOGY CO., LTD., priority 2021, published 2025)

Key:
Assay type in all cases: in vivo
[1] = system: Arabidopsis thaliana T1 plants; test: Mesotrione tolerance of transgenic Arabidopsis thaliana T1 plants (spray, bleached leaf area grade, damage score); design: Scores: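 damage score 0-100 computed as Σ(N×S)/(T×M)×100 over grades 0-3 with higher meaning more damage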; conditions: for Resistance evaluation / Classification and statistics of the grade of pesticide damage: Grade 0 / Classification and statistics of the grade of pesticide damage: Grade 1 / Classification and statistics of the grade of pesticide damage: Grade 2 / Classification and statistics of the grade of pesticide damage: Grade 3 / Scores: 7 DAT, Table 3; for Classification and statistics of the grade of pesticide damage: Grade 0 / Classification and statistics of the grade of pesticide damage: Grade 1 / Classification and statistics of the grade of pesticide damage: Grade 2 / Classification and statistics of the grade of pesticide damage: Grade 3: number of plants; for Scores: pesticide damage score 0-100
Summary of the method: (§1)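 Damage was assessed by bleaching grade (0 none; 1 <50%; 2 >50%; 3 100% of leaf area) one week after spraying. Sprays on 18-day-old T1 and wild-type plants used field-rate multiples: topramezone 25–200, isoxaflutole 35–280, mesotrione 52.5–420 g ai/ha.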

[2] = system: Arabidopsis thaliana T1 plants; test: Isoxaflutole tolerance of transgenic Arabidopsis thaliana T1 plants (spray, bleached leaf area grade, damage score); conditions: for Resistance evaluation / Classification and statistics of the grade of pesticide damage: Grade 0 / Classification and statistics of the grade of pesticide damage: Grade 1 / Classification and statistics of the grade of pesticide damage: Grade 2 / Classification and statistics of the grade of pesticide damage: Grade 3 / Scores: 7 DAT, Table 2; for Classification and statistics of the grade of pesticide damage: Grade 0 / Classification and statistics of the grade of pesticide damage: Grade 1 / Classification and statistics of the grade of pesticide damage: Grade 2 / Classification and statistics of the grade of pesticide damage: Grade 3: number of plants; for Scores: pesticide damage score 0-100;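 as to Scores: Weighted damage index from 0 to 100 where higher means more damage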
Summary of the method: as §1

[3] = system: Arabidopsis thaliana T1 plants; test: Topramezone tolerance of transgenic Arabidopsis thaliana T1 plants (spray, bleached leaf area grade, damage score); conditions: for Classification and statistics of the grade of pesticide damage: Grade 0 / Classification and statistics of the grade of pesticide damage: Grade 1 / Classification and statistics of the grade of pesticide damage: Grade 2 / Classification and statistics of the grade of pesticide damage: Grade 3: number of plants; for Classification and statistics of the grade of pesticide damage: Grade 0 / Classification and statistics of the grade of pesticide damage: Grade 1 / Classification and statistics of the grade of pesticide damage: Grade 2 / Classification and statistics of the grade of pesticide damage: Grade 3 / Scores / Resistance evaluation: 7 DAT, Table 1; for Scores: pesticide damage score 0-100
Excerpt: T1 transformants were initially selected from the untransformed seeds using a glufosinate selection scheme. The Arabidopsis thaliana T1 plants (AsHPPD-02) into which the AsHPPD-02 nucleotide sequence was introduced, the Arabidopsis thaliana T1 plants (AsHPPDm-F372A-02) into which the AsHPPDm-F372A-02 nucleotide sequence was introduced, the Arabidopsis thaliana T1 plants (AsHPPDm-F383W-02) into which the AsHPPDm-F383W-02 nucleotide sequence was introduced, the Arabidopsis thaliana T1 plants (AsHPPDm-F372A-F383W-02) into which the AsHPPDm-F372A-F383W-02 nucleotide sequence was introduced, the Arabidopsis thaliana T1 plants (DBN11726N) into which the control recombinant expression vector DBN11726N was introduced, and the wild-type Arabidopsis thaliana plants (CK) (18 days after sowing) were sprayed respectively with topramezone at three concentrations (100 g ai/ha (four-fold field concentration, 4×), 200 g ai/ha (eight-fold field concentration, 8×), and 0 g ai/ha (water, 0×)), isoxaflutole at three concentrations (140 g ai/ha (two-fold field concentration, 2×), 280 g ai/ha (four-fold field concentration, 4×), and 0 g ai/ha (water, 0×)), and mesotrione at three concentrations (210 g ai/ha (two-fold field concentration, […]), 420 g ai/ha (four-fold field concentration, 4×), and 0 g ai/ha (water, 0×)), to determine the tolerance of Arabidopsis thaliana to the herbicides. The degree of damage caused by the herbicide was measured for each plant according to the proportion of bleached leaf area (the proportion of bleached leaf area=bleached leaf area/total leaf area×100%) 7 days after spraying (7 DAT): the case where there is basically no bleached phenotype is defined as grade 0, the case where the proportion of bleached leaf area is less than 50% is defined as grade 1, the case where the proportion of bleached leaf area is more than 50% is defined as grade 2, and the case where the proportion of bleached leaf area is 100% grade is defined as grade 3.
According to the method as described above in point 6 of Example 1, the aforementioned Arabidopsis thaliana T1 plants and wild-type Arabidopsis thaliana plants (CK) (18 days after sowing) were sprayed respectively with topramezone at three concentrations (25 g ai/ha (one-fold field concentration, 1×). 100 g ai/ha (four-fold field concentration, 4×), and 0 g ai/ha (water, 0×)), isoxaflutole at three concentrations (35 g ai/ha (half-fold field concentration, 0.5×). 70 g ai/ha (one-fold field concentration, 1×), and 0 g ai/ha (water, 0×)), and mesotrione at three concentrations (52.5 g ai/ha (half-fold field concentration, 0.5×), 105 g ai/ha (one-fold field concentration, 1×), and 0 g ai/ha (water, 0×)) to detect the tolerance of Arabidopsis thaliana to the herbicides.
According to the method as described above in point 6 of Example 1, the aforementioned Arabidopsis thaliana T1 plants and wild-type Arabidopsis thaliana plants (CK) (18 days after sowing) were sprayed with topramezone at three different concentrations (i.e., 100 g ai/ha (four-fold field concentration, 4×), 200 g ai/ha (eight-fold field concentration, 8×) and 0 g ai/ha (water, 0×)), isoxaflutole at three different concentrations (i.e., 140 g ai/ha (two-fold field concentration, 2×), 280 g ai/ha (four-fold field concentration, 4×) and 0 g ai/ha (water, 0×)), and mesotrione at three different concentrations (i.e., 210 g ai/ha (two-fold field concentration, 2×), 420 g ai/ha (four-fold field concentration, 4×) and 0 g ai/ha (water, 0×)) respectively to detect the herbicide tolerance of Arabidopsis thaliana. […]

[4] = mesotrione 210 g ai/ha (two-fold field concentration)

B1: AsHPPDm-F372A-F383W-02: nucleotide sequence encoding Avena sativa HPPD with F372A+F383W; vector DBN11726 (nucleic acid)
DNA: ATGCCACCTACTCCAGCTACAGCTACTGGTGCTGCTGCTGCTGCCGTTACTCCTGAGCACGCTGCCAGGTCATTCCCCAGGGTGGTTCGCGTGAACCCCAGATCTGATAGGTTCCCAGTTCTGAGCTTCCACCATGTTGAGCTGTGGTGCGCTGATGCTGCTTCTGCTGCTGGCAGGTTCTCTTTCGCTCTTGGTGCTCCACTCGCTGCTAGATCTGATCTGTCTACAGGAAATAGCGCTCATGCCTCACTCCTGCTTCGCTCAGGTGCTTTGGCCTTCCTCTTCACCGCTCCATATGCTCCCCCACCTCAGGAGGCTGCTACTGCTGCTGCTACAGCCTCCATTCCAAGCTTCTCAGCTGATGCCGCTAGAACCTTCGCTGCTGCTCATGGACTTGCCGTGAGGTCTGTTGGTGTTCGCGTGGCTGATGCTGCTGAGGCTTTCAGAGTTTCCGTTGCCGGCGGAGCTAGGCCAGCTTTCGCTCCTGCTGATTTGGGACATGGTTTCGGCCTGGCTGAGGTTGAGCTTTACGGTGACGTGGTTCTCCGCTTCGTGTCTTACCCAGATGAGACTGACCTGCCTTTCCTTCCCGGCTTCGAGAGAGTTTCCTCTCCTGGTGCCGTGGATTACGGCCTGACAAGGTTCGACCACGTGGTTGGAAACGTTCCCGAGATGGCTCCAGTGATCGATTACATGAAGGGCTTCCTTGGATTCCATGAGTTCGCCGAGTTCACTGCTGAGGACGTGGGAACCACTGAGTCCGGTTTGAACTCTGTGGTTCTCGCCAACAATTCTGAGGCTGTTTTGCTCCCTCTGAATGAGCCTGTGCATGGAACCAAGAGGAGAAGCCAGATTCAAACTTACCTGGAGTACCACGGTGGCCCTGGAGTTCAGCATATCGCCCTTGCTTCTAATGATGTGTTGCGCACACTCAGAGAGATGCGCGCCAGAACCCCCATGGGAGGTTTCGAGTTCATGGCCCCACCACAGGCTAAGTACTACGAGGGCGTTAGAAGGATTGCTGGAGACGTGTTGAGCGAGGAGCAGATCAAGGAGTGCCAAGAGCTGGGTGTTCTTGTGGATAGGGATGACCAGGGCGTTCTGCTTCAAATTGCCACTAAGCCAGTGGGCGACCGCCCTACATTCTGGCTTGAGATGATTCAAAGAATCGGCTGCATGGAGAAGGATGAGGTTGGACAGGAGTACCAAAAGGGCGGATGCGGTGGCTTCGGAAAGGGTAACTTCAGCGAGTTGTTCAAGTCAATCGAGGACTACGAGAAGAGCCTCGAGGTGAAGCAGTCAGTGGTTGCCCAAAAGTCCTGA
modifications: AsHPPDm-F372A-F383W-02 Nucleotide Sequence
notes: vector DBN11726
In the case of B1, the “tolerance to mesotrione (in words)” value ([1]; in vivo) is reported as “different degrees of tolerance”, the Resistance evaluation [1, 4] is reported as “highly resistant (highly resistant plants (scores 0-15))” and the Resistance evaluation ([1]; mesotrione 420 g ai/ha (4×)) is reported as “highly resistant (highly resistant plants (scores 0-15))”. The “tolerance to mesotrione (resistance class)” value ([1]; mesotrione at four-fold field concentration) was “highly-resistant”, the “tolerance to mesotrione (resistance class)” value ([1]; mesotrione at two-fold field concentration) was “highly-resistant” and the “Classification and statistics of the grade of pesticide damage: Grade 0” value (“Classification and statistics … Grade 0” for short) [1, 4] was 16. The “Classification and statistics of the grade of pesticide damage: Grade 1” value (“Classification and statistics … Grade 1” for short) [1, 4] was 0, the “Classification and statistics of the grade of pesticide damage: Grade 2” value (“Classification and statistics … Grade 2” for short) [1, 4] was 0 and the “Classification and statistics of the grade of pesticide damage: Grade 3” value (“Classification and statistics … Grade 3” for short) [1, 4] was 0. The “Classification and statistics … Grade 0” value ([1]; mesotrione 420 g ai/ha (4×)) was 15, the “Classification and statistics … Grade 1” value ([1]; mesotrione 420 g ai/ha (4×)) was 1 and the “Classification and statistics … Grade 2” value ([1]; mesotrione 420 g ai/ha (4×)) was 0. For the same molecule, the “Classification and statistics … Grade 3” value ([1]; mesotrione 420 g ai/ha (4×)) was 0, the Scores [1, 4] was 0 and the Scores ([1]; mesotrione 420 g ai/ha (4×)) was 2. For the same molecule, the “tolerance to isoxaflutole (in words)” value ([2]; in vivo) was “different degrees of tolerance”, the Resistance evaluation ([2]; isoxaflutole 140 g ai/ha (2×)) was “highly resistant (highly resistant plants (scores 0-15))” and the Resistance evaluation ([2]; isoxaflutole 280 g ai/ha (4×)) was “highly resistant (highly resistant plants (scores 0-15))”. For the same molecule, the “tolerance to isoxaflutole (resistance class)” value ([2]; isoxaflutole at four-fold field concentration) was “highly-resistant”, the “tolerance to isoxaflutole (resistance class)” value ([2]; isoxaflutole at two-fold field concentration) was “highly-resistant” and the “Classification and statistics … Grade 0” value ([2]; isoxaflutole 140 g ai/ha (2×)) was 16. The “Classification and statistics … Grade 1” value ([2]; isoxaflutole 140 g ai/ha (2×)) was 0, the “Classification and statistics … Grade 2” value ([2]; isoxaflutole 140 g ai/ha (2×)) was 0 and the “Classification and statistics … Grade 3” value ([2]; isoxaflutole 140 g ai/ha (2×)) was 0. The “Classification and statistics … Grade 0” value ([2]; isoxaflutole 280 g ai/ha (4×)) was 12, the “Classification and statistics … Grade 1” value ([2]; isoxaflutole 280 g ai/ha (4×)) was 4 and the “Classification and statistics … Grade 2” value ([2]; isoxaflutole 280 g ai/ha (4×)) was 0. For the same molecule, the “Classification and statistics … Grade 3” value ([2]; isoxaflutole 280 g ai/ha (4×)) was 0, the Scores ([2]; isoxaflutole 140 g ai/ha (2×)) was 0 and the Scores ([2]; isoxaflutole 280 g ai/ha (4×)) was 8. The “Classification and statistics … Grade 0” value ([3]; topramezone 100 g ai/ha (4×)) was 16, the “Classification and statistics … Grade 1” value ([3]; topramezone 100 g ai/ha (4×)) was 0 and the “Classification and statistics … Grade 2” value ([3]; topramezone 100 g ai/ha (4×)) was 0. The “Classification and statistics … Grade 3” value ([3]; topramezone 100 g ai/ha (4×)) was 0, the “Classification and statistics … Grade 0” value ([3]; topramezone 200 g ai/ha (8×)) was 16 and the “Classification and statistics … Grade 1” value ([3]; topramezone 200 g ai/ha (8×)) was 0. The “Classification and statistics … Grade 2” value ([3]; topramezone 200 g ai/ha (8×)) was 0, the “Classification and statistics … Grade 3” value ([3]; topramezone 200 g ai/ha (8×)) was 0 and the Scores ([3]; topramezone 100 g ai/ha (4×)) was 0. The Scores ([3]; topramezone 200 g ai/ha (8×)) was 0, the Resistance evaluation ([3]; topramezone 100 g ai/ha (4×)) was “highly resistant (highly resistant plants (scores 0-15))” and the Resistance evaluation ([3]; topramezone 200 g ai/ha (8×)) was “highly resistant (highly resistant plants (scores 0-15))”. The “tolerance to topramezone (resistance class)” value ([3]; topramezone at four-fold or eight-fold field concentration) was “highly-resistant”.
